Results on two molecules are retold here after article PMC6916587, “The roles of factor Va and protein S in formation of the activated protein C/protein S/factor Va inactivation complex” (Journal of Thrombosis and Haemostasis, 2019).

One assay deals with T1, protein S (wild type) (UniProt P07225).
T1 sequence (chain, gamma-carboxyglutamate at 36 (printed as Gla36)): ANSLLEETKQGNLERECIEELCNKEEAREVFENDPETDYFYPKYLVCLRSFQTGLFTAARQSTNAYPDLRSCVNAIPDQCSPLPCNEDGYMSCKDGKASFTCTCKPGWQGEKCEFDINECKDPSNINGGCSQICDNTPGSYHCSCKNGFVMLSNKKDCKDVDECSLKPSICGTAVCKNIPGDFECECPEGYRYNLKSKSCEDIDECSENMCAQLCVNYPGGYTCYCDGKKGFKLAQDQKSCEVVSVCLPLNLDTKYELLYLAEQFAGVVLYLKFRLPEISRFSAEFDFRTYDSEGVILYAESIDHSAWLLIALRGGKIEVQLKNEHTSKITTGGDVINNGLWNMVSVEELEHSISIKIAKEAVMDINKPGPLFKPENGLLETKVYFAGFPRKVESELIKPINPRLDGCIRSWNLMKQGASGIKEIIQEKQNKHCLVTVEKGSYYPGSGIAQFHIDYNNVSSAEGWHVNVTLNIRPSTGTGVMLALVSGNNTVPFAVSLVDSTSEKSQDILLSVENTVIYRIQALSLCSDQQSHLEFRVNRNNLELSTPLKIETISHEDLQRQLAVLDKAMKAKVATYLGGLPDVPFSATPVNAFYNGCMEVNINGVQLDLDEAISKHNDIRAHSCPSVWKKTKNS

In assay [1] the target is T2, activated factor V (FVa), wild type (UniProt P12259 29-737; P12259 1574-2224).
T2 construct: FVa heavy chain (A1-A2), cut from full-length recombinant FV by thrombin; FVa light chain (A3-C1-C2), cut from full-length recombinant FV by thrombin with release of the B domain; FV cDNA in vector pED from Dr Rodney Camire; also called WT FVa; factor Va
T2 sequence (looked up) 1: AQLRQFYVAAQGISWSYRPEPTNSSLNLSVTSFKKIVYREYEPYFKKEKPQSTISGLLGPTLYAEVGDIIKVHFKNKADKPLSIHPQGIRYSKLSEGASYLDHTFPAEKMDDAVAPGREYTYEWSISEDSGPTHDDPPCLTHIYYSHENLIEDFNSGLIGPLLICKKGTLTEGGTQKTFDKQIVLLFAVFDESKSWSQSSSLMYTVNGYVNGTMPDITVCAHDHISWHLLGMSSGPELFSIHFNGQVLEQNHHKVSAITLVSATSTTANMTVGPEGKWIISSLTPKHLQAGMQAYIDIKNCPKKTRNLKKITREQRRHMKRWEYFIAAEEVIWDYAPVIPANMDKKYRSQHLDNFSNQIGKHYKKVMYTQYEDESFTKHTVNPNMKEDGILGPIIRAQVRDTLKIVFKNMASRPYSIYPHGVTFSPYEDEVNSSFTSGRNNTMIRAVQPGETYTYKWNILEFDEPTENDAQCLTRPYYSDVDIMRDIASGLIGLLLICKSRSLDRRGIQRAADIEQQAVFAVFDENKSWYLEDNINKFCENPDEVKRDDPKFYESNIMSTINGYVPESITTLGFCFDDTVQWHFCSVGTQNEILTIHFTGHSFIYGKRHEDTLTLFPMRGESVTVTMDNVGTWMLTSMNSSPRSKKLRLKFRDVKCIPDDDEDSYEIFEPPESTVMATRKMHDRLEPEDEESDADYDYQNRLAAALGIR
T2 sequence (looked up) 2: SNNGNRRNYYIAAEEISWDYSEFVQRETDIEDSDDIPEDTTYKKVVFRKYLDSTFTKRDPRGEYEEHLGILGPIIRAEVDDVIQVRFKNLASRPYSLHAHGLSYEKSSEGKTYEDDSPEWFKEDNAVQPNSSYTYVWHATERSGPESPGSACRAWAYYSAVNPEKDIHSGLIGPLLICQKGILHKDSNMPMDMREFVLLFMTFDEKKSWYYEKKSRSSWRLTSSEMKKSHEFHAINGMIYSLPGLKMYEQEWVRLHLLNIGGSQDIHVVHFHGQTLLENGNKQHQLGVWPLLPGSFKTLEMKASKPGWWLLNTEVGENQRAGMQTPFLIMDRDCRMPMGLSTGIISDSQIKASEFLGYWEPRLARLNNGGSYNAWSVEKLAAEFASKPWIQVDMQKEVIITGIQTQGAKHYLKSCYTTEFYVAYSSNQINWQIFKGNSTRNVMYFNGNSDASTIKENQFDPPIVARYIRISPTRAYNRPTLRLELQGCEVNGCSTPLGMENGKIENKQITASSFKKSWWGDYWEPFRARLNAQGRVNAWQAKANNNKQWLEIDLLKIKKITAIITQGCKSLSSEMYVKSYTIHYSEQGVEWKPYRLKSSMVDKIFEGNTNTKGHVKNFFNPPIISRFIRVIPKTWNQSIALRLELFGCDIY
In words: flow cytometry on phospholipid-coated magnetic beads; as a2, with 200 nmol/L β-chain-containing C4BP pre-incubated with 100 nmol/L protein S and 25 nmol/L FVa for 10 min before 50 nmol/L APC-Fluor. Conditions: both partners purified. In general terms: A flow cytometer gives signals particle by particle.

Assay [2] has as its target T3, β-chain-containing C4b-binding protein (C4BP), protein S-free (human, UniProt P04003 49-597; P20851 18-252).
T3 construct: source: purified from pooled fresh frozen citrated human plasma
T3 sequence (looked up) 1: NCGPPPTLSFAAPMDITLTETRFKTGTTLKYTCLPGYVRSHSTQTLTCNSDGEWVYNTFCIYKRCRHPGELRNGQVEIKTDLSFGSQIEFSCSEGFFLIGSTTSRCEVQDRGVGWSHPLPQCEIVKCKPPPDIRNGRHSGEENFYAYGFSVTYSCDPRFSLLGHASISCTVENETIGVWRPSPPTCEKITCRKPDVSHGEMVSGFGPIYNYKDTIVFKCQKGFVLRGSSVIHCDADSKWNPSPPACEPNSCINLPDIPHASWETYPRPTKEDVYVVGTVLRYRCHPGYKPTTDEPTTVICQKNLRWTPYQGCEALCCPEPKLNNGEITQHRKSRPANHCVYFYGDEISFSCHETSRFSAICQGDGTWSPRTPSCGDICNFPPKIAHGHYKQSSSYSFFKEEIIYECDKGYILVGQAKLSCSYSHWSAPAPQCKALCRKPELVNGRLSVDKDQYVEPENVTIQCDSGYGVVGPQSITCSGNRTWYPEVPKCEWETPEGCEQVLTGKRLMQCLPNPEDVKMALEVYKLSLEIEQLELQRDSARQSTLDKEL
T3 sequence (looked up) 2: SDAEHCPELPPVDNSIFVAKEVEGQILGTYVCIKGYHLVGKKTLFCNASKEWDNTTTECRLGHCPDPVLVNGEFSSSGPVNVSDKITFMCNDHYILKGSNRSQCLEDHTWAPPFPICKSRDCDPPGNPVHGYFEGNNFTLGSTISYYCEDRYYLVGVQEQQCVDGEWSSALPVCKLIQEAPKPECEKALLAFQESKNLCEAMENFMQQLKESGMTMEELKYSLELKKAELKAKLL
The description is as above. Conditions: both partners purified.

Bounds are passed on as bounds.

For “activated factor V Nara (FVa^Nara, W1920R) (from UniProt P12259 29-737; P12259 1574-2224) (natural protein)”, in the assay with protein S (wild type), the FVa inactivation assay (remaining FVa activity by prothrombinase assay): protein S needed for inactivation comparable to WT FVa at 3 nmol/L protein S; 0.25 nmol/L APC, 25 μmol/L phospholipids, 10 min is greater than 50 nmol/L and the FVa inactivation assay in the presence of protein S: APC (0-0.25 nmol/L) that reduces FVa activity by ~50%; 25 μmol/L phospholipids, 10 min is greater than 50 pmol/L.

B1: protein S (wild type) (natural protein, UniProt P07225 42-676, looked up)
chain: ANSLLEETKQGNLERECIEELCNKEEAREVFENDPETDYFYPKYLVCLRSFQTGLFTAARQSTNAYPDLRSCVNAIPDQCSPLPCNEDGYMSCKDGKASFTCTCKPGWQGEKCEFDINECKDPSNINGGCSQICDNTPGSYHCSCKNGFVMLSNKKDCKDVDECSLKPSICGTAVCKNIPGDFECECPEGYRYNLKSKSCEDIDECSENMCAQLCVNYPGGYTCYCDGKKGFKLAQDQKSCEVVSVCLPLNLDTKYELLYLAEQFAGVVLYLKFRLPEISRFSAEFDFRTYDSEGVILYAESIDHSAWLLIALRGGKIEVQLKNEHTSKITTGGDVINNGLWNMVSVEELEHSISIKIAKEAVMDINKPGPLFKPENGLLETKVYFAGFPRKVESELIKPINPRLDGCIRSWNLMKQGASGIKEIIQEKQNKHCLVTVEKGSYYPGSGIAQFHIDYNNVSSAEGWHVNVTLNIRPSTGTGVMLALVSGNNTVPFAVSLVDSTSEKSQDILLSVENTVIYRIQALSLCSDQQSHLEFRVNRNNLELSTPLKIETISHEDLQRQLAVLDKAMKAKVATYLGGLPDVPFSATPVNAFYNGCMEVNINGVQLDLDEAISKHNDIRAHSCPSVWKKTKNS
modifications: gamma-carboxyglutamate at 36 (printed as Gla36)
notes: protein S, wild type; also called WT protein S; PS; source: HEK293 cells, stably transfected, purified (barium citrate precipitation, anion exchange chromatography)
Consider B1, for which the binding result in assay [1] and in assay [2] was “binds” each time.
